Results: patent US20240252635A1 (Genmab, published 2024)

Target: T1, human CD37 (human (Homo sapiens), UniProt P11049 1-281)
T1 construct: Endogenous on Daudi cells, Raji cells and human blood B cells; also called Leukocyte Antigen CD37; GP52-40
T1 sequence: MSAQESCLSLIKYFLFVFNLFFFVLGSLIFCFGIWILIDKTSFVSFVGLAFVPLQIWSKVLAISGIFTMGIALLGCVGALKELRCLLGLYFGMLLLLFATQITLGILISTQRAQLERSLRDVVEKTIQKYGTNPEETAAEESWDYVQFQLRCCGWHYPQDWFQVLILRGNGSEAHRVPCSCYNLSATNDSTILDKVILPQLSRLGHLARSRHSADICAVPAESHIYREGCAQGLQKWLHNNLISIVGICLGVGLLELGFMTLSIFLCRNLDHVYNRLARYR
Assay: flow cytometry on HEK293 cells expressing wild type CD37 or alanine mutants, Alexa488 antibody at 3 µg/mL
Protocol: The wild type CD37 and alanine mutants were expressed individually in FreeStyle HEK293 cells according to the manufacturer's instructions (Thermo Scientific). One day post transfection the cells were harvested. […] Cells were incubated for 1 hour at room temperature. Subsequently, cells were washed twice by adding 150 μL FACS buffer and removing the supernatant after centrifugation. Cells were resuspended in 20 μL fresh FACS buffer and stored at 4° C. until analysis by flow cytometry using an iQue screener (IntelliCyt). The entire experiment was performed 2 times.

B1: bsIgG1-016-H5L2-LC90S-F405L-E430Gxb12-K409R-E430G (bispecific antibody)
heavy 1: not shown
light 1: DVVMTQSPSTLSASVGDRVTITCQASQNIDSNLAWYQQKPGKAPKFLIYYASNLPFGVPSRFKGSGSGTEFTLTISSLQPDDFATYYCQSADVGSTYVAAFGGGTKVEIKRTVAAPSVFIFPPSDEQLKSGTASVVCLLNNFYPREAKVQWKVDNALQSGNSQESVTEQDSKDSTYSLSSTLTLSKADYEKHKVYACEVTHQGLSSPVTKSFNRGEC
heavy 2: not shown
light 2: EIVLTQSPGTLSLSPGERATFSCRSSHSIRSRRVAWYQHKPGQAPRLVIHGVSNRASGISDRFSGSGSGTDFTLTITRVEPEDFALYYCQVYGASSYTFGQGTKLERKRTVAAPSVFIFPPSDEQLKSGTASVVCLLNNFYPREAKVQWKVDNALQSGNSQESVTEQDSKDSTYSLSSTLTLSKADYEKHKVYACEVTHQGLSSPVTKSFNRGEC
notes: also called antibody 016
Q: Does B1 bind?
A: Result: binds
